According to US20210253679A1 (NATIONAL RESEARCH COUNCIL OF CANADA, published 2021):

B1: R11-H4 (VHH)
VHH: QVQLVESGGGLVQPGGSLRLSCAASGFLLRSNTMGWYRQAPGKERELVAFIRPSGLTNYNDAVQGRFTISRDNSKNTLYLQMNSLRAEDTAVYYCHTRPPFQRDSWGQGTLVTVSS
B2: R11 sdAb (VHH)
VHH: QVKLEESGGGLVQAGGSLRLSCVGPGFLLRSNTMGWYRQAPGKERELVAFIRPSGLTNYNDAVQGRFTISRDNAKNTVYLQMNALKPEDTAVYYCHTRPPFQRDSWGQGTQVTVSS
notes: also called R11 VHH
B3: R11-H3 (VHH)
VHH: EVQLVESGGGLVQPGGSLRLSCAASGFLLRSNTMGWYRQAPGKERELVSFIRPSGLTNYNDAVQGRFTISRDNSKNTLYLQMNSLRAEDTAVYYCHTRPPFQRDSWGQGTLVTVSS
B4: B39 (VHH, not shown: small tags and cut ends)
VHH: QVQLVESGGGLVQAGGSLRLSCAASGLTFSRYVMGWFRQAPGKEREFVAAITWGGTPNYADSVKGRFTISRDNSKNTQYLQMNSLKPEDTAVYYCAAGLGWDSRYSQSYNYWGQGTQVTVSS
notes: also called B39-HA-His6; B39 control
B5: R28 sdAb (VHH)
VHH: QVQLVESGGGLVQAGGSLRLSCVASGRTFIAYAMGWFRQAPGKEREFVAAITNFAGGTTYYADSVKGRFTISRDNAKTTVYLQMNSLKPEDTALYYCAADRSAQTMRQVRPVLPYWGQGTQVTVSS
notes: also called R28 VHH
B6: M79 sdAb (VHH)
VHH: QVKLEESGGGLVQAGGSLKLSCAASGSTFSSSSVGWYRQAPGQQRELVAAITSGGSTNTADSVKGRFTMSRDNAKNTVYLQMRDLKPEDTAVYYCNVAGRNWVPISRYSPGPYWGQGTQVTVSS
notes: also called M79 VHH
B7: M75 sdAb (VHH)
VHH: QVQLVESGGGFVQAGGSLRLSCAASGRTFDNYVMAWFRQAPGKEREFVASISGSGSITNYANSVKDRFTISRDSAKNAIYLQMNSLKPEDTALYYCAAGSRRTYYREPKFYPSWGQGTQVTVSS
notes: also called M75 VHH

Assays:
human serum albumin [1] = target: T1, human serum albumin (human, UniProt P02768 25-609); assay: SPR, pH 7.4; complex binding, data not analyzable
T1 construct: also called HSA

rhesus serum albumin [2] = target: T2, rhesus serum albumin (rhesus, UniProt Q28522 17-600); assay: SPR, pH 7.4; complex binding, data not analyzable
T2 construct: also called RhSA

rat serum albumin [3] = target: T3, rat serum albumin (rat, UniProt P02770 25-608); assay: SPR, pH 7.4; complex binding, data not analyzable
T3 construct: also called RSA

mouse serum albumin [4] = target: T4, mouse serum albumin (mouse, UniProt P07724 25-608); assay: ITC, pH 7.4
T4 construct: also called MSA
T4 sequence (P07724 25-608 limits assumed): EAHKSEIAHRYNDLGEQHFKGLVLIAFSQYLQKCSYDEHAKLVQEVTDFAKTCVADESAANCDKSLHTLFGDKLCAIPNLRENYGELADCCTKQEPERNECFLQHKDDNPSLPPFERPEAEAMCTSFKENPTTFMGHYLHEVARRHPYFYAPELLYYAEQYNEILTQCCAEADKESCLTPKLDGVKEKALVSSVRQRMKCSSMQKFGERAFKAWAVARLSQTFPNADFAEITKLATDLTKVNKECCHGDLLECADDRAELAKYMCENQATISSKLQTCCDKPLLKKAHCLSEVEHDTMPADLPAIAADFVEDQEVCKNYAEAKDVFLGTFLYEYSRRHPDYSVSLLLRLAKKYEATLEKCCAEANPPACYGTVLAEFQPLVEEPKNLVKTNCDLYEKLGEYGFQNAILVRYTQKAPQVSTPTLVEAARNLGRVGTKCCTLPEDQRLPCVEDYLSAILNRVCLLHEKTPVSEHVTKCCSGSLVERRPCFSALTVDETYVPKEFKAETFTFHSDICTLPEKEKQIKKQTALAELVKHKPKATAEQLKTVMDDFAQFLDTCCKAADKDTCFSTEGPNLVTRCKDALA

human serum albumin [5] = target: T1, human serum albumin; assay: SPR, single cycle kinetics, pH 5.5
rhesus serum albumin [6] = target: T2, rhesus serum albumin; assay: SPR, single cycle kinetics, pH 5.5
rat serum albumin [7] = target: T3, rat serum albumin; assay: SPR, single cycle kinetics, pH 5.5
human serum albumin [8] = target: T1, human serum albumin; assay: SPR, single cycle kinetics, pH 7.4
rhesus serum albumin [9] = target: T2, rhesus serum albumin; assay: SPR, single cycle kinetics, pH 7.4
rat serum albumin [10] = target: T3, rat serum albumin; assay: SPR, single cycle kinetics, pH 7.4
human serum albumin [11] = target: T1, human serum albumin; assay: SPR, single cycle kinetics, pH 5.5; remark: listed apart in the source
rhesus serum albumin [12] = target: T2, rhesus serum albumin; assay: SPR, single cycle kinetics, pH 5.5; remark: listed apart in the source
rat serum albumin [13] = target: T3, rat serum albumin; assay: SPR, single cycle kinetics, pH 5.5; remark: listed apart in the source
human serum albumin [14] = target: T1, human serum albumin; assay: SPR, single cycle kinetics, pH 7.4; remark: listed apart in the source
rhesus serum albumin [15] = target: T2, rhesus serum albumin; assay: SPR, single cycle kinetics, pH 7.4; remark: listed apart in the source
rat serum albumin [16] = target: T3, rat serum albumin; assay: SPR, single cycle kinetics, pH 7.4; remark: listed apart in the source
human serum albumin [17] = target: T1, human serum albumin; assay: SPR, single-concentration injection over an HSA surface
mouse serum albumin [18] = target: T4, mouse serum albumin; assay: SPR, single cycle kinetics, pH 7.4
HSA domain 2 (DII) = target: T5, HSA domain 2 (DII) (human, UniProt P02768 213-409); assay: SPR, 100 nM VHH over an amine-coupled DII surface
T5 construct: domain: DII

Binder | binding result (human serum albumin [1]) | binding result (rhesus serum albumin [2]) | binding result (rat serum albumin [3]) | Kd (mouse serum albumin [4]) [µM] | Kd (human serum albumin [5]) [µM] | Kd (rhesus serum albumin [6]) [µM] | Kd (rat serum albumin [7]) [µM] | Kd (human serum albumin [8]) [µM] | Kd (rhesus serum albumin [9]) [µM] | Kd (rat serum albumin [10]) [µM] | Kd (human serum albumin [11]) [µM] | Kd (rhesus serum albumin [12]) [µM] | Kd (rat serum albumin [13]) [µM] | Kd (human serum albumin [14]) [µM] | Kd (rhesus serum albumin [15]) [µM] | Kd (rat serum albumin [16]) [µM] | binding result (human serum albumin [17]) | Kd (mouse serum albumin [18]) [µM] | binding result (HSA domain 2 (DII))
B1 | binds | binds | binds | – | – | – | – | – | – | – | – | – | – | – | – | – | – | – | –
B2 | – | – | – | 0.014 | 0.029 | 0.116 | 0.03 | 0.093 | 0.159 | 0.0617 | 0.0289 | 0.116 | 0.0299 | 0.0931 | 0.159 | 0.0617 | – | – | –
B3 | binds | – | binds | – | – | – | – | – | – | – | – | – | – | – | – | – | – | – | –
B4 | – | – | – | – | – | – | – | – | – | – | – | – | – | – | – | – | no binding (tested: not printed (single concentration)) | – | –
B5 | – | – | – | – | 0.0018 | 0.006 | 0.0003 | 0.012 | 0.038 | 0.0004 | 0.0018 | 0.0059 | 0.0003 | 0.0121 | 0.0382 | 0.0004 | – | 0.16 | –
B6 | – | – | – | 0.406 | 0.007 | 0.002 | 0.007 | 0.122 | 0.085 | 0.013 | 0.0071 | 0.002 | 0.0071 | 0.122 | 0.0846 | 0.0126 | – | – | –
B7 | – | – | – | – | 0.735 | – | – | 0.0012 | 0.0029 | 0.315 | 0.735 | – | – | 0.0012 | – | – | – | 0.51 | no binding (tested: 100 nM)
